Laboratory results taken from publication PMC10700650, “Enhancing the thermostability and activity of glycosyltransferase UGT76G1 via computational design” (Communications Chemistry, 2023).

How the values were obtained:
[1] = target: 76_4 (designed UGT76G1 variant) (Stevia rebaudiana, UniProt Q6VAB4, L101F/S192K/R297W/V300K/S305P/G348P, form not given); settings: 1 mM UDPG; 0-300 uM ST; ST to RebA conversion; 2 min time course
purified protein = substrate: C=C1C[C@@]23CC[C@H]4[C@@](C)(CCC[C@@]4(C)C(=O)O[C@@H]4O[C@H](CO)[C@@H](O)[C@H](O)[C@H]4O)[C@@H]2CC[C@]1(O[C@@H]1O[C@H](CO)[C@@H](O)[C@H](O)[C@H]1O[C@@H]1O[C@H](CO)[C@@H](O)[C@H](O)[C@H]1O)C3; test: purified protein; settings: 1 mM UDPG; 0-300 uM ST; ST to RebA conversion; 2 min time course

Chain of 76_4 (designed UGT76G1 variant) (Q6VAB4 12-458 L101F/S192K/R297W/V300K/S305P/G348P, form open): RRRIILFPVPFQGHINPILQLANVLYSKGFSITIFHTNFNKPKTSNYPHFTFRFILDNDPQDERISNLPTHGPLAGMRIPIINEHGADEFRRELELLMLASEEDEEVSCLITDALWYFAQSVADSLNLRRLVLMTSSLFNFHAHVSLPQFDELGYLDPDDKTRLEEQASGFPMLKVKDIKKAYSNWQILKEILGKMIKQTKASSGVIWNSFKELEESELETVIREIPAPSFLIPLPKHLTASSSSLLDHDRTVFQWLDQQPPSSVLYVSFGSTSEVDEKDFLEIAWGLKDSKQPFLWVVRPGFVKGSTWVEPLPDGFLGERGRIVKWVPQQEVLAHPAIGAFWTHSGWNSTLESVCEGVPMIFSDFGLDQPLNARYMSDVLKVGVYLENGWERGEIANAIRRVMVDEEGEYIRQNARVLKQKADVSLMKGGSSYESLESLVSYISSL

Molecule	Km [1] [µM]	Km (purified protein) [µM]	kcat (purified protein) [s⁻¹]
C=C1C[C@@]23CC[C@H]4[C@@](C)(CCC[C@@]4(C)C(=O)O[C@@H]4O[C@H](CO)[C@@H](O)[C@H](O)[C@H]4O)[C@@H]2CC[C@]1(O[C@@H]1O[C@H](CO)[C@@H](O)[C@H](O)[C@H]1O[C@@H]1O[C@H](CO)[C@@H](O)[C@H](O)[C@H]1O)C3 [ST, stevioside]	34.5 ± 3	–	–
UGT76G1 (WT) (Stevia rebaudiana) (protein) MENKTETTVRRRRRIILFPVPFQGHINPILQLANVLYSKGFSITIFHTNFNKPKTSNYPHFTFRFILDNDPQDERISNLPTHGPLAGMRIPIINEHGADELRRELELLMLASEEDEEVSCLITDALWYFAQSVADSLNLRRLVLMTSSLFNFHAHVSLPQFDELGYLDPDDKTRLEEQASGFPMLKVKDIKSAYSNWQILKEILGKMIKQTKASSGVIWNSFKELEESELETVIREIPAPSFLIPLPKHLTASSSSLLDHDRTVFQWLDQQPPSSVLYVSFGSTSEVDEKDFLEIARGLVDSKQSFLWVVRPGFVKGSTWVEPLPDGFLGERGRIVKWVPQQEVLAHGAIGAFWTHSGWNSTLESVCEGVPMIFSDFGLDQPLNARYMSDVLKVGVYLENGWERGEIANAIRRVMVDEEGEYIRQNARVLKQKADVSLMKGGSSYESLESLVSYISSL	–	92.0 ± 5.3	0.288 ± 0.0267
